The source of these data is patent publication US9017992.

Assay [1] addresses mouse anti-human BCL2 oncoprotein, Clone 124 (DakoCytomation code No. M0887). Put plainly: IHC on FFPE tonsil: unconjugated M0887 1:100 (0.015 uM) on tissue, then K5007 GaM:HRP 30 min.
The target of assay [2] is Human p27 (human) (UniProt P46527). Put plainly: IHC on multi-block FFPE tissue, primary 1:400, K5007 reference.
Assay [3] has the same target. Put plainly: IHC on multi-block FFPE tissue, primary 1:400, PNA system (D12102 + D12094).
For assay [4], the target named is Human Ki-67 Antigen (human) (UniProt P46013). Put plainly: IHC on multi-block FFPE tissue, primary 1:1200, K5007 reference.
The target is the same in assay [5]. Put plainly: IHC on FFPE tonsil, primary 1:1200, EnVision-based detection K5007.
Assay [6] has the same target. Put plainly: IHC on FFPE tonsil, primary 1:400, PNA based detection (D12102 + D12094).
Assay [7] shares this target. Put plainly: IHC on FFPE tonsil, primary 1:1200, PNA based detection (D12102 + D12094).
For assay [8] the target is unchanged. Put plainly: IHC on FFPE tonsil, primary 1:2400, PNA based detection (D12102 + D12094).
Assay [9] has the same target. Put plainly: IHC on multi-block FFPE tissue, primary 1:1200, PNA system (D12102 + D12094).
Assay [10] has the same target. Put plainly: IHC on multi tissue section, M7240 1:150, 3-layer PNA system with HRP, DAB+.
Assay [11] shares this target. Put plainly: Double IHC on multi tissue sections, M7240 1:150, 3-layer PNA system with AP.
The target is the same in assay [12]. Put plainly: Double IHC on multi tissue sections, M7240 1:150, 3-layer PNA system with HRP, detection method 1.
Assay [13] has the same target. Put plainly: Double IHC on multi tissue sections, M7240 1:150, 3-layer PNA system with HRP, detection method 2.
For assay [14] the target is unchanged. Put plainly: IHC on multi tissue section, M7240 1:150, 3-layer PNA system with AP / Permanent Red; first of two scores, taken as the specific one.
Assay [15] deals with Human CD45 LCA (human) (UniProt P08575). Put plainly: IHC on multi-block FFPE tissue, primary 1:1600, K5007 reference.
Assay [16] has the same target. Put plainly: IHC on multi-block FFPE tissue, primary 1:1600, PNA system (D12102 + D12094).
Assay [17] concerns the target Human Estrogen Receptor (human) (UniProt P03372). Put plainly: IHC on multi-block FFPE tissue, primary 1:200, K5007 reference.
The target is the same in assay [18]. Put plainly: IHC on multi-block FFPE tissue, primary 1:200, PNA system (D12102 + D12094).
Assay [19] concerns the target Human CD20cy (human) (UniProt P11836). Put plainly: IHC on multi-block FFPE tissue, primary 1:8000, K5007 reference.
The target is the same in assay [20]. Put plainly: IHC on FFPE tonsil, primary 1:8000, EnVision-based detection K5007.
For assay [21] the target is unchanged. Put plainly: IHC on FFPE tonsil, primary 1:2000, PNA based detection (D12102 + D12094).
The target is the same in assay [22]. Put plainly: IHC on FFPE tonsil, primary 1:8000, PNA based detection (D12102 + D12094).
Assay [23] shares this target. Put plainly: IHC on FFPE tonsil, primary 1:14000, PNA based detection (D12102 + D12094).
For assay [24] the target is unchanged. Put plainly: IHC on multi-block FFPE tissue, primary 1:8000, PNA system (D12102 + D12094).
Assay [25] deals with Human Cytokeratin (human). Put plainly: IHC on multi-block FFPE tissue, primary 1:900, K5007 reference.
In assay [26] the target is Human Cytokeratin (human). Put plainly: IHC on FFPE tonsil, primary 1:900, EnVision-based detection K5007.
Assay [27] addresses Human Cytokeratin (human). Put plainly: IHC on FFPE tonsil, primary 1:900, PNA based detection (D12102 + D12094).
Assay [28] has as its target Human Cytokeratin (human). Put plainly: IHC on FFPE tonsil, primary 1:1600, PNA based detection (D12102 + D12094).
Assay [29] concerns the target Human Cytokeratin (human). Put plainly: IHC on multi-block FFPE tissue, primary 1:900, PNA system (D12102 + D12094).
Assay [30] concerns the target Human Cytokeratin (human). Put plainly: Double IHC on multi tissue sections, M3515 1:50, GaM-dex-PNA1 + PNA2-dex-HRP, DAB+.
For assay [31], the target named is Human Cytokeratin (human). Put plainly: Double IHC on multi tissue sections, M3515 1:50, GaM-dex-PNA1 (209-149) + PNA2-dex-HRP (209-157), detection method 1.
The target in assay [32] is Human Cytokeratin (human). Put plainly: Double IHC on multi tissue sections, M3515 1:50, GaM-dex-PNA1 (209-149) + PNA2-dex-HRP (209-157), detection method 2.
For assay [33], the target named is Human Cytokeratin (human). Put plainly: IHC on FFPE tonsil, primary 1:300, PNA based detection (GAM/dextran/PNA1 D12102 + HRP/dextran/PNA2 D12094); score 0 to 3+.
Assay [34] has as its target Human Desmin (human) (UniProt P17661). Put plainly: IHC on multi-block FFPE tissue, primary 1:1200, K5007 reference.
Assay [35] has the same target. Put plainly: IHC on multi-block FFPE tissue, primary 1:1200, PNA system (D12102 + D12094).
The next assay concerns the target Tonsil tissues. Put plainly: IHC on FFPE tonsil, negative control IgG1 1:300, EnVision-based detection K5007.
Assay [36] addresses Human Epithelial Membrane Antigen (human) (UniProt P15941). Put plainly: IHC on multi-block FFPE tissue, primary 1:6400, K5007 reference.
For assay [37] the target is unchanged. Put plainly: IHC on multi-block FFPE tissue, primary 1:6400, PNA system (D12102 + D12094).
Assay [38] addresses human BCL2 oncoprotein (human) (UniProt P10415). Put plainly: IHC on multi-block FFPE tissue, primary 1:500, K5007 reference.
Assay [39] has the same target. Put plainly: IHC on multi-block FFPE tissue, primary 1:500, PNA system (D12102 + D12094).
The target in assay [40] is Human CD68 (human) (UniProt P34810). Put plainly: IHC on multi-block FFPE tissue, primary 1:800, K5007 reference.
Assay [41] has the same target. Put plainly: IHC on multi-block FFPE tissue, primary 1:800, PNA system (D12102 + D12094).

Chain of UniProt P46013 (P46013 whole entry): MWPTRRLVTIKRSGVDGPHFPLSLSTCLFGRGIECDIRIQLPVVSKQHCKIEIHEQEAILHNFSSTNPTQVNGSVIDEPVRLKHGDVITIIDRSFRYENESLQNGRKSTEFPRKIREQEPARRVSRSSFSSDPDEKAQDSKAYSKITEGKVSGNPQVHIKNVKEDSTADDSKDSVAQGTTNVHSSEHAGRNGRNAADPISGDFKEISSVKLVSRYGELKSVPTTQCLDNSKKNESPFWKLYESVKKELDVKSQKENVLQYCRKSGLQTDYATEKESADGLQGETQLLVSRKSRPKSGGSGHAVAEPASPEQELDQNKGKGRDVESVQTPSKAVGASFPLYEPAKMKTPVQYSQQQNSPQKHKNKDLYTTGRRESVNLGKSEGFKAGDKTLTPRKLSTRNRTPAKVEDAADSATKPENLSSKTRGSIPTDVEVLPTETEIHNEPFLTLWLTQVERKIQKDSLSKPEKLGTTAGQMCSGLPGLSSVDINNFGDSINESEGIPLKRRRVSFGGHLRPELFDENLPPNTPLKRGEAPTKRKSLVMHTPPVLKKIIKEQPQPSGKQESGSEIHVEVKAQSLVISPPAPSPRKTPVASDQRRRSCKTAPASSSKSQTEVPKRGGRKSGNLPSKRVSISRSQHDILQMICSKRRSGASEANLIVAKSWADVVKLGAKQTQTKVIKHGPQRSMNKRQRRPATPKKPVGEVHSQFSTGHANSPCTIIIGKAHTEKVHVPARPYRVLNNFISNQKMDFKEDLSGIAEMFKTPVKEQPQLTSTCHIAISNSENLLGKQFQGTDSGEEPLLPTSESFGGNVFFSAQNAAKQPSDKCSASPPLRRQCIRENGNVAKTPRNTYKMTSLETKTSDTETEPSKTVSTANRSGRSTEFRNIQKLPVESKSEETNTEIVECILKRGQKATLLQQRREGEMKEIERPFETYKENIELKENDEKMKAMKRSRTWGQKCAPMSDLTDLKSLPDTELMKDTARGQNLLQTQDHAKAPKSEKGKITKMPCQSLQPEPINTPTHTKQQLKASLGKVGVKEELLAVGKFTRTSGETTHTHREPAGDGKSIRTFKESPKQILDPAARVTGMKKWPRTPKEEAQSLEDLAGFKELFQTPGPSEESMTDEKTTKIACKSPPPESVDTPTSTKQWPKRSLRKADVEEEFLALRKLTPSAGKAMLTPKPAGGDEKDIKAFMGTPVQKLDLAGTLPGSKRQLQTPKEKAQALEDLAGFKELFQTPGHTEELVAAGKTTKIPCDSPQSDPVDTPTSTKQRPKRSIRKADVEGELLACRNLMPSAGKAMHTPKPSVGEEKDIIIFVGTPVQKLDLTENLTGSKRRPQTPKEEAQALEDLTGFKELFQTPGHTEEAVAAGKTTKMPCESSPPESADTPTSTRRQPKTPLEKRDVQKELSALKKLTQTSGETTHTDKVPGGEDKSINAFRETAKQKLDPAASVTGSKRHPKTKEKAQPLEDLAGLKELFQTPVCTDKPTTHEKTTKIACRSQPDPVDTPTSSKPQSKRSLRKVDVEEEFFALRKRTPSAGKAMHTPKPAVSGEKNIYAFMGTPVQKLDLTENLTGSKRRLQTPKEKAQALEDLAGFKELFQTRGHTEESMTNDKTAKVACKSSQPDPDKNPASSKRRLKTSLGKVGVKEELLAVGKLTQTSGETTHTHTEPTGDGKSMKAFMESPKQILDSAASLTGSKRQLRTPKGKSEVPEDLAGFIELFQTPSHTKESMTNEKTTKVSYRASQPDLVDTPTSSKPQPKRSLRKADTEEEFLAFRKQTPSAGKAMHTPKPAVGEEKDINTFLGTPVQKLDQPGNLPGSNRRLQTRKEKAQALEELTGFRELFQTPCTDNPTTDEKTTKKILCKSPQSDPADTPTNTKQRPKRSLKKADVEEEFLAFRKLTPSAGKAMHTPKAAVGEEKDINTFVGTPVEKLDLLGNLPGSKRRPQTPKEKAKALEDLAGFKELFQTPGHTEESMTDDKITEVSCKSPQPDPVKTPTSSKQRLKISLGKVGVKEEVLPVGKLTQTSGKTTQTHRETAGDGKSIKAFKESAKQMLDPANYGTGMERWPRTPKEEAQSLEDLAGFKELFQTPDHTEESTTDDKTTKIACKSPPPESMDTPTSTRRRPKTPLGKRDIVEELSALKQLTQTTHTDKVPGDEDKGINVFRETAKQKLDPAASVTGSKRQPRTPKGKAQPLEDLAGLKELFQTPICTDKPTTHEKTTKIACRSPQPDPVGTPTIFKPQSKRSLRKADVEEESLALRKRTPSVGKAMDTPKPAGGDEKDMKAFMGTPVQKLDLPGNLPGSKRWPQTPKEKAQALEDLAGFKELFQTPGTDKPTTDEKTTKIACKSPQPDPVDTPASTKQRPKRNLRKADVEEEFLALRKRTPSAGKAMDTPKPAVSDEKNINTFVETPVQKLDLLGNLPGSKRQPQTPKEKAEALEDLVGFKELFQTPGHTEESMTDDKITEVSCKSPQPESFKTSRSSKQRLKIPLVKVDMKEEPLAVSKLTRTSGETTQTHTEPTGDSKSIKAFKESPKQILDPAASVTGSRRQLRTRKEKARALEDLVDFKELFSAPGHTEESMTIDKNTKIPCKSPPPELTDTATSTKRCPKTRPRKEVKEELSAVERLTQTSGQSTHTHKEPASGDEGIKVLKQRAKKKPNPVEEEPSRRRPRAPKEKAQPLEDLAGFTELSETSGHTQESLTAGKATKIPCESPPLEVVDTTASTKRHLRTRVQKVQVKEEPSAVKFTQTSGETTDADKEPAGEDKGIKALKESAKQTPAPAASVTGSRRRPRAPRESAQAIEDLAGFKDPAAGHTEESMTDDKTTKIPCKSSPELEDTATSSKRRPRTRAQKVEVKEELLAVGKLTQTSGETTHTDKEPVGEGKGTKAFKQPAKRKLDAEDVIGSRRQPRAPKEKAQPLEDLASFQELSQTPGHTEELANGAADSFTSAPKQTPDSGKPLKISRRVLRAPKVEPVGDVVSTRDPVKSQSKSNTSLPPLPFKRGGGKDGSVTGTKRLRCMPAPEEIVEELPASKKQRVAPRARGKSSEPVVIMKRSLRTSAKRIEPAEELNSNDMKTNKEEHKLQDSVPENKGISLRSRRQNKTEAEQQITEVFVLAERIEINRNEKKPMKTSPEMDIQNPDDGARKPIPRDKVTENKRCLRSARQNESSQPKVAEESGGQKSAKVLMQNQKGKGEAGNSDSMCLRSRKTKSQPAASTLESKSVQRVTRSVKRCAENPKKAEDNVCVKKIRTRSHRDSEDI
Chain of UniProt P11836 (P11836 whole entry): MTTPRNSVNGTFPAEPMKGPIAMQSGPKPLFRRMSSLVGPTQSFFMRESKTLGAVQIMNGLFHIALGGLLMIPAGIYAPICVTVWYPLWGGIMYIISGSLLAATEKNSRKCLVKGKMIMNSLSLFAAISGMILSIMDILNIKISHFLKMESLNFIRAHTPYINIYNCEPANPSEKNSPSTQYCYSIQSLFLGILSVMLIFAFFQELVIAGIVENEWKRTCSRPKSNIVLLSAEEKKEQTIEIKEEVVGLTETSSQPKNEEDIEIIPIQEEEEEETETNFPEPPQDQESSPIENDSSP
Chain of UniProt P08575 (P08575 26-1306 limits assumed): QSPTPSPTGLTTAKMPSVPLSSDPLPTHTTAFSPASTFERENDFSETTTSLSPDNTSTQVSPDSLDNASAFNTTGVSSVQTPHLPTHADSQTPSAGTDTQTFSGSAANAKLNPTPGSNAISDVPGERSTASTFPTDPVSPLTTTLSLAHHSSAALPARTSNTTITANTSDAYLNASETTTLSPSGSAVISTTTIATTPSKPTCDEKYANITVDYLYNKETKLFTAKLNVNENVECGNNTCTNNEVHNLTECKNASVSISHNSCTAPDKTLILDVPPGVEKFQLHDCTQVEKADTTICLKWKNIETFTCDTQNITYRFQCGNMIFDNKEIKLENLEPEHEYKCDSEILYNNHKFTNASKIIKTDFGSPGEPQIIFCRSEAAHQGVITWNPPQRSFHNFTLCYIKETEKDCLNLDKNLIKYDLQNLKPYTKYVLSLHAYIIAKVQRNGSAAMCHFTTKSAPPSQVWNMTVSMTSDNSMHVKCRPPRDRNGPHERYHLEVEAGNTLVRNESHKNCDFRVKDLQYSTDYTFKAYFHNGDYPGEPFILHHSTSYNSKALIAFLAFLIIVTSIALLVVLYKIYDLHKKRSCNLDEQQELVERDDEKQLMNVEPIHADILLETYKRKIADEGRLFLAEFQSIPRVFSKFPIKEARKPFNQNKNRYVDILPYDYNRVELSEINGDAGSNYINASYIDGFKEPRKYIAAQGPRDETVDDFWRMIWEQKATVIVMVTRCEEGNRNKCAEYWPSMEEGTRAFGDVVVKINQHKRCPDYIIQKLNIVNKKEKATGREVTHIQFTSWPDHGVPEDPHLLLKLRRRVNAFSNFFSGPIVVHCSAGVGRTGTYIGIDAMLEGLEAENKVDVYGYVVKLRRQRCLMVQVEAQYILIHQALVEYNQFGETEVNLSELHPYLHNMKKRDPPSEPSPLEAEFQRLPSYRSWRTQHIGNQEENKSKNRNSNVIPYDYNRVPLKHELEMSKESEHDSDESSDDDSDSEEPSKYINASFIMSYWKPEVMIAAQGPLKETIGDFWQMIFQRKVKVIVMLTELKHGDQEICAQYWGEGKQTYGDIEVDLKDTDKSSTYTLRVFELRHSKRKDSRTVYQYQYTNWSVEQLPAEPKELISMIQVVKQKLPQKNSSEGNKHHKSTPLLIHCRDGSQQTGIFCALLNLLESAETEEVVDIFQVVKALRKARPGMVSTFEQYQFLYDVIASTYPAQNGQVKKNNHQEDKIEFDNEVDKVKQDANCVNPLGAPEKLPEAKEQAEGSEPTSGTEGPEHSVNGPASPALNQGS
Chain of UniProt P10415 (P10415 whole entry): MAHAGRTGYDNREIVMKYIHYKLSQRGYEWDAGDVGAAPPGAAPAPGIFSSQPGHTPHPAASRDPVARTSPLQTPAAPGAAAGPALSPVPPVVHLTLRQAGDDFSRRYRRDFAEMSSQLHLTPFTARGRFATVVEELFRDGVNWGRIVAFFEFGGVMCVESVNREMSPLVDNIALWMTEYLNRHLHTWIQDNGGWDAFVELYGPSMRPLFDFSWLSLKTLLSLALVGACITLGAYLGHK

Turning to “K5007 GaM:HRP complex (ChemMate EnVision Detection kit Rabbit/Mouse, DakoCytomation code No. K5007 bottle A) (antibody)”, the Specific staining intensity with K5007 in [1] was determined as 3 score.

For “Monoclonal Mouse Anti-Human p27 (DakoCytomation code No. M7203) (antibody)”, the Specific staining intensity with Human p27 (human) [2] amounted to 1.5 score; in the assay with Human p27 (human) [3], 2.5 score.

On to “Monoclonal Mouse Anti-Human Ki-67 Antigen (DakoCytomation code No. M7240) (antibody)”, for which the Specific staining intensity in [4] was determined as 1.5 score; in [5], 2 score; in [6], 3 score; in assay [7], 2.5 score; in [8], 1.5 score; in [9] it was 2 score. The substance also came in with a Staining intensity score in assay [10] of 2.5. Also, the specific staining in assay [11] stood at 2 score; in [12] it was 1.5 score; in [13], 1.5 score. In addition, the staining score in assay [14] is 1.

With “Monoclonal Mouse Anti-Human CD45 LCA (DakoCytomation code No. M0701) (antibody)”, the Specific staining intensity with Human CD45 LCA (human) [15] is 2 score; with Human CD45 LCA (human) [16], 3 score.

Turning to “Monoclonal Mouse Anti-Human Estrogen Receptor (DakoCytomation code No. M7047) (antibody)”, the Specific staining intensity in assay [17] amounted to 2.5 score; in [18], 3 score.

As for “Monoclonal Mouse Anti-Human CD20cy (DakoCytomation code No. M0755) (antibody)”, the Specific staining intensity with Human CD20cy (human) [19] is 1.5 score; in the assay with Human CD20cy (human) [20] it was 2 score; with Human CD20cy (human) [21], 3 score; with Human CD20cy (human) [22] it was 2.5 score; with Human CD20cy (human) [23], 1.5 score; with Human CD20cy (human) [24] it was 1.5 score.

“Monoclonal Mouse Anti-Human Cytokeratin (DakoCytomation code No. M3515) (antibody)”: the Specific staining intensity in assay [25] was 1.5 score; in assay [26], 2 score; in [27], 2.5 score; in assay [28] it was 1.5 score; in [29] it was 2 score; in [33], 3 score. Besides, the specific staining is 3 score in assay [30], 2.5 score in assay [31] and 3 score in [32].

In the case of “Monoclonal Mouse Anti-Human Desmin (DakoCytomation code No. M0760) (antibody)”, the Specific staining intensity in the assay with Human Desmin (human) [34] and with Human Desmin (human) [35] was 1.5 score in each case.

As to “mouse IgG1 negative control (DakoCytomation code No. X0931) (antibody)”, the Specific staining intensity with Tonsil tissues was found to be 0 score.

Consider “Monoclonal Mouse Anti-Human Epithelial Membrane Antigen (DakoCytomation code No. M0613) (antibody)”, for which the Specific staining intensity in [36] is 1.5 score; in assay [37], 2.5 score.

Turning to “mouse anti-human BCL2 oncoprotein, Clone 124 (DakoCytomation code No. M0887) (antibody)”, the Specific staining intensity in assay [38] and in assay [39] was 2 score each time.

Consider “Monoclonal Mouse Anti-Human CD68 (DakoCytomation code No. M0876) (antibody)”, for which the Specific staining intensity with Human CD68 (human) [40] and in the assay with Human CD68 (human) [41] was 2 score each time.
